These results are taken from article PMC10998907.

Assay [1] has as its target NiV-RBP ectodomain (NiV attachment glycoprotein ectodomain), homotetramer (Nipah virus) (UniProt Q9IH62). Nature of the assay: negative-stain EM.
Assay [2] has as its target NiV-RBP ectodomain homotetramer (Nipah virus). Nature of the assay: cryo-EM structure.

As for “NiV-RBP ectodomain (NiV attachment glycoprotein ectodomain), homotetramer (from UniProt Q9IH62 1-602) (domain or fragment)”, in assay [1], the stoichiometry N was 4. In turn, “NiV-RBP ectodomain homotetramer (domain or fragment)” yielded a stoichiometry N in assay [2] of 4.

One may read the stoichiometry N as the number of molecules, sites or subunits per partner or assembly.
